The values below come from article PMC3021753.

Assay [1] has as its target T1, YeeV fused to the GAL4 DNA binding domain (pGBD-C1) (E. coli), P64524.
T1 chain: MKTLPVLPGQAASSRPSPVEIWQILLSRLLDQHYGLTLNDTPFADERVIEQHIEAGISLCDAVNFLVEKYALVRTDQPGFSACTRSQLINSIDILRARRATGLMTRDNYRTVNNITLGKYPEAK
Nature of the assay: two-hybrid. The conditions noted are these: remark: other sources report otherwise.

Assay [2] concerns the target MreB fused to the GAL4 DNA binding domain (pGBD-C1) (E. coli), P0A9X4. Nature of the assay: two-hybrid. The conditions noted are these: remark: other sources report otherwise.

B1: MreB fused to the GAL4 activation domain, P0A9X4 1-347 (natural protein)
chain: MLKKFRGMFSNDLSIDLGTANTLIYVKGQGIVLNEPSVVAIRQDRAGSPKSVAAVGHDAKQMLGRTPGNIAAIRPMKDGVIADFFVTEKMLQHFIKQVHSNSFMRPSPRVLVCVPVGATQVERRAIRESAQGAGAREVFLIEEPMAAAIGAGLPVSEATGSMVVDIGGGTTEVAVISLNGVVYSSSVRIGGDRFDEAIINYVRRNYGSLIGEATAERIKHEIGSAYPGDEVREIEVRGRNLAEGVPRGFTLNSNEILEALQEPLTGIVSAVMVALEQCPPELASDISERGMVLTGGGALLRNLDRLLMEETGIPVVVAEDPLTCVARGGGKALEMIDMHGGDLFSEE
The molecule B1 gave a β-Galactosidase activity (Miller Units) in assay [1] of 98 Miller Units.

B2: FtsZ fused to the GAL4 activation domain (pGAD-C1), P0A9A6 1-383 (natural protein)
chain: MFEPMELTNDAVIKVIGVGGGGGNAVEHMVRERIEGVEFFAVNTDAQALRKTAVGQTIQIGSGITKGLGAGANPEVGRNAADEDRDALRAALEGADMVFIAAGMGGGTGTGAAPVVAEVAKDLGILTVAVVTKPFNFEGKKRMAFAEQGITELSKHVDSLITIPNDKLLKVLGRGISLLDAFGAANDVLKGAVQGIAELITRPGLMNVDFADVRTVMSEMGYAMMGSGVASGEDRAEEAAEMAISSPLLEDIDLSGARGVLVNITAGFDLRLDEFETVGNTIRAFASDNATVVIGTSLDPDMNDELRVTVVATGIGMDKRPEITLVTNKQVQQPVMDRYQQHGMAPLTQEQKPVAKVVNDNAPQTAKEPDYLDIPAFLRKQAD
Molecule B2 displayed a β-Galactosidase activity (Miller Units) in assay [2] of 345 Miller Units.
